Measurements: the RNAGym collection of RNA variant scans (doi:10.7554/elife.90254)

B1: LINE1-mini (parent)
chain: GGCAGAGCUCAACACAGCGUGGCAAAGUGGCUGUGGCUAGACUGCC

Variants of: B1
Assay: self-cleavage, relative activity (ratio to wild type); higher = more cleavage; in vitro, sequencing; the parent is a self-cleaving ribozyme

| Variant | self-cleavage |
| --- | --- |
| C18A C42U | 0.13 |
| C18A C42A | 0.12 |
| C18A C42G | 0.04 |
| C18A U28G | 0.5 |
| C18A U28C | 0.49 |
| C18A U28A | 0.7 |
| C18U G19U | 1.14 |
| C18U G19C | 0.56 |
| C18U G19A | 1.13 |
| G17U G22A | 0.26 |
| G17U G22U | 0.67 |
| G17U G22C | 0.61 |
| C18A U34A | 0.03 |
| C18A U34G | 0.04 |
| C18A U34C | 0.06 |
| C18G U34A | 0.05 |
| C18G U34G | 0.02 |
| C18G U34C | 0.03 |
| G17U C45U | 0.18 |
| G17U C45G | 0.05 |
| G17U C45A | 0.05 |
| C18U C46U | 1.43 |
| C18U C46G | 1.24 |
| C18U C46A | 0.46 |

| Variant | self-cleavage |
| --- | --- |
| C18A U20C | 0.31 |
| C18A U20A | 0.29 |
| C18A U20G | 0.61 |
| C18G A25U | 0.51 |
| C18G A25C | 0.2 |
| C18G A25G | 0.13 |
| G17U U28C | 1.16 |
| G17U U28G | 0.1 |
| G17U U28A | 0.17 |
| C18G C23U | 0.89 |
| C18G C23G | 0.66 |
| C18G C23A | 0.64 |
| G17U U20A | 0.16 |
| G17U U20C | 0.64 |
| G17U U20G | 0.12 |
| C18G G29C | 0.49 |
| C18G G29A | 1.38 |
| C18G G29U | 0.96 |
| C18A G33A | 0.03 |
| C18A G33U | 0.04 |
| C18A G33C | 0.04 |
| C18U A41G | 0.26 |
| C18U A41U | 0.92 |
| C18U A41C | 0.05 |

| Variant | self-cleavage |
| --- | --- |
| G17U C23A | 0.21 |
| G17U C23G | 0.1 |
| G17U C23U | 0.18 |
| G17C G44U | 0.07 |
| G17C G44C | 0.05 |
| G17C G44A | 0.11 |
| G17U C42A | 0.05 |
| G17U C42G | 0.06 |
| G17U C42U | 0.06 |
| C18A G27A | 1.47 |
| C18A G27C | 0.62 |
| C18A G27U | 1.04 |
| G17U G29A | 0.43 |
| G17U G29C | 0.39 |
| G17U G29U | 0.43 |
| C18A A25U | 1.21 |
| C18A A25G | 0.19 |
| C18A A25C | 0.36 |
| C18G C31U | 0.02 |
| C18G C31A | 0.06 |
| C18G C31G | 0.04 |
| G17U U34C | 0.05 |
| G17U U34A | 0.05 |
| G17U U34G | 0.04 |

| Variant | self-cleavage |
| --- | --- |
| C18U C31G | 0.05 |
| C18U C31A | 0.08 |
| C18U C31U | 0.04 |
| G17U A24G | 0.09 |
| G17U A24C | 0.11 |
| G17U A24U | 0.25 |
| G17C U38G | 0.03 |
| G17C U38A | 0.14 |
| G17C U38C | 0.15 |
| G17C G33C | 0.03 |
| G17C G33A | 0.06 |
| G17C G33U | 0.06 |
| C18G G35A | 0.07 |
| C18G G35U | 0.08 |
| G17C G35U | 0.03 |
| G17C G35C | 0.04 |
| G17C G35A | 0.11 |
| G17U C18U | 0.12 |
| G17U C18A | 0.18 |
| G17U C18G | 0.12 |
| G17U C37G | 0.03 |
| G17U C37A | 0.1 |
| G17U C37U | 0.05 |
| C18A G44U | 0.08 |

| Variant | self-cleavage |
| --- | --- |
| C18A G44C | 0.22 |
| C18A G44A | 0.2 |
| C18A C46A | 0.95 |
| C18A C46U | 0.65 |
| C18A C46G | 0.47 |
| C18G C45G | 0.09 |
| C18G C45A | 0.26 |
| C18G C45U | 0.13 |
| C18G C46G | 0.25 |
| C18G C46A | 0.43 |
| C18G C46U | 0.4 |
| G17C G27U | 1.06 |
| C18A G19U | 0.31 |
| C18A G19A | 1.05 |
| C18A G19C | 1.27 |
| C18A G22C | 0.92 |
| C18A G22A | 1.07 |
| C18A G22U | 1.74 |
| G17U G21U | 0.36 |
| G17U G21C | 1.31 |
| G17U G21A | 0.3 |
| C18G U28C | 0.36 |
| C18G U28G | 0.22 |
| C18G U28A | 0.39 |

| Variant | self-cleavage |
| --- | --- |
| C18A C45A | 0.24 |
| C18A C45G | 0.14 |
| C18A C45U | 0.58 |
| G17U C31A | 0.88 |
| G17U C31G | 1.67 |
| G17U C31U | 0.11 |
| C18U C45U | 1.45 |
| C18U C45A | 0.79 |
| C18U C45G | 0.27 |
| C18G G30A | 0.92 |
| C18G G30C | 1 |
| C18G G30U | 0.62 |
| C18A C31A | 0.16 |
| C18A C31G | 0.04 |
| C18A C31U | 0.04 |
| C18A U32C | 0.16 |
| C18A U32A | 0.05 |
| C18A U32G | 0.04 |
| C18A U43A | 0.08 |
| C18A U43G | 0.26 |
| C18A U43C | 0.05 |
| C18U | 1.21 |
| C18A | 0.85 |
| C18G | 0.52 |

| Variant | self-cleavage |
| --- | --- |
| G17U U32A | 0.08 |
| G17U U32C | 0.18 |
| G17U U32G | 0.09 |
| G17C U20A | 0.55 |
| G17C U20C | 0.66 |
| G17C U20G | 0.14 |
| G17U | 0.23 |
| C18A G29U | 1.07 |
| C18A G29C | 0.83 |
| C18A G29A | 0.69 |
| G17U G27U | 0.35 |
| G17U G27C | 0.22 |
| G17U G27A | 0.38 |
| G17U G33A | 0.06 |
| G17U G33C | 0.02 |
| G17U G33U | 0.05 |
| G17C U28C | 0.36 |
| G17C U28G | 1.62 |
| G17C U28A | 1.16 |
| C18G G36A | 0.1 |
| C18G G36C | 0.08 |
| C18G G36U | 0.07 |
| G17C G40C | 0.05 |
